Laboratory results reported in the supplement of paper PMC9112550, “Optimization of the antimicrobial peptide Bac7 by deep mutational scanning” (BMC Biology, 2022).

tested on: Escherichia coli TOP10; test: shrunken log2 fold change of peptide-encoding DNA abundance (4.5 h post-induction vs induction); higher = less antimicrobial activity (less host growth inhibition); conditions: time post-induction: 4.5 h; library: site-saturation at positions 5, 18, 19, 20
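Note: peptides expressed intracellularly from a pBAD plasmid library in pooled LB shake-flask culture, induced with 0.3% L-arabinose, DNA abundance read by NGS, three biological replicates, DESeq2 with apeglm shrinkage.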

| Sequence | shrunken log2 fold change |
| --- | --- |
| RRIRGRPPRLPRPRPRPMHMPRP | 0.347 |
| RRIRGRPPRLPRPRPRPMIDPRP | 0.967 |
| RRIRGRPPRLPRPRPRPMIEPRP | 0.953 |
| RRIRGRPPRLPRPRPRPMITPRP | 0.24 |
| RRIRGRPPRLPRPRPRPMKAPRP | 0.231 |
| RRIRGRPPRLPRPRPRPMMIPRP | -0.0387 |
| RRIRGRPPRLPRPRPRPMMMPRP | 0.574 |
| RRIRGRPPRLPRPRPRPMMSPRP | 0.136 |
| RRIRGRPPRLPRPRPRPMMTPRP | 3.31 |
| RRIRGRPPRLPRPRPRPMPKPRP | 0.884 |
| RRIRGRPPRLPRPRPRPMPSPRP | 0.431 |
| RRIRGRPPRLPRPRPRPMPTPRP | 0.612 |
| RRIRGRPPRLPRPRPRPMQAPRP | 0.256 |
| RRIRGRPPRLPRPRPRPMQHPRP | 1.24 |
| RRIRGRPPRLPRPRPRPMRGPRP | 1.09 |
| RRIRGRPPRLPRPRPRPMRHPRP | 0.559 |
| RRIRGRPPRLPRPRPRPMRVPRP | 1.65 |
| RRIRGRPPRLPRPRPRPMRYPRP | 0.347 |
| RRIRGRPPRLPRPRPRPMSNPRP | 0.473 |
| RRIRGRPPRLPRPRPRPMWEPRP | 1.3 |
| RRIRGRPPRLPRPRPRPMWIPRP | 0.218 |
| RRIRGRPPRLPRPRPRPMWTPRP | 0.311 |
| RRIRGRPPRLPRPRPRPNAQPRP | 0.836 |
| RRIRGRPPRLPRPRPRPNCDPRP | 0.382 |
| RRIRGRPPRLPRPRPRPNCLPRP | 0.191 |

| Sequence | shrunken log2 fold change |
| --- | --- |
| RRIRGRPPRLPRPRPRPNESPRP | 0.302 |
| RRIRGRPPRLPRPRPRPNFCPRP | 0.362 |
| RRIRGRPPRLPRPRPRPNFEPRP | 1.87 |
| RRIRGRPPRLPRPRPRPNFPPRP | 0.193 |
| RRIRGRPPRLPRPRPRPNHPPRP | 0.0349 |
| RRIRGRPPRLPRPRPRPNILPRP | 0.199 |
| RRIRGRPPRLPRPRPRPNIYPRP | -0.13 |
| RRIRGRPPRLPRPRPRPNMDPRP | 0.265 |
| RRIRGRPPRLPRPRPRPNMNPRP | 0.255 |
| RRIRGRPPRLPRPRPRPNMYPRP | -0.185 |
| RRIRGRPPRLPRPRPRPNNKPRP | 0.0225 |
| RRIRGRPPRLPRPRPRPNQFPRP | 0.0521 |
| RRIRGRPPRLPRPRPRPNQPPRP | 0.295 |
| RRIRGRPPRLPRPRPRPNQVPRP | 0.195 |
| RRIRGRPPRLPRPRPRPNRQPRP | 0.167 |
| RRIRGRPPRLPRPRPRPNRSPRP | -0.0578 |
| RRIRGRPPRLPRPRPRPNRWPRP | 0.617 |
| RRIRGRPPRLPRPRPRPNSEPRP | 0.295 |
| RRIRGRPPRLPRPRPRPNSKPRP | 0.0993 |
| RRIRGRPPRLPRPRPRPNSYPRP | -0.0855 |
| RRIRGRPPRLPRPRPRPNTGPRP | 0.0864 |
| RRIRGRPPRLPRPRPRPNVNPRP | 0.371 |
| RRIRGRPPRLPRPRPRPNVVPRP | 0.0631 |
| RRIRGRPPRLPRPRPRPNWEPRP | 0.21 |
| RRIRGRPPRLPRPRPRPNWLPRP | 0.341 |

| Sequence | shrunken log2 fold change |
| --- | --- |
| RRIRGRPPRLPRPRPRPNWPPRP | 0.306 |
| RRIRGRPPRLPRPRPRPNWSPRP | 0.131 |
| RRIRGRPPRLPRPRPRPNYAPRP | 0.0408 |
| RRIRGRPPRLPRPRPRPPCYPRP | 0.265 |
| RRIRGRPPRLPRPRPRPPDHPRP | 0.982 |
| RRIRGRPPRLPRPRPRPPEHPRP | 0.853 |
| RRIRGRPPRLPRPRPRPPFIPRP | 0.627 |
| RRIRGRPPRLPRPRPRPPGLPRP | 0.786 |
| RRIRGRPPRLPRPRPRPPHYPRP | 0.523 |
| RRIRGRPPRLPRPRPRPPIAPRP | 0.874 |
| RRIRGRPPRLPRPRPRPPKAPRP | 0.63 |
| RRIRGRPPRLPRPRPRPPLIPRP | 0.669 |
| RRIRGRPPRLPRPRPRPPLMPRP | 0.717 |
| RRIRGRPPRLPRPRPRPPMPPRP | 0.659 |
| RRIRGRPPRLPRPRPRPPMQPRP | 1.12 |
| RRIRGRPPRLPRPRPRPPNAPRP | 1.35 |
| RRIRGRPPRLPRPRPRPPNDPRP | 0.76 |
| RRIRGRPPRLPRPRPRPPNHPRP | 0.942 |
| RRIRGRPPRLPRPRPRPPRGPRP | 0.938 |
| RRIRGRPPRLPRPRPRPPVNPRP | 0.55 |
| RRIRGRPPRLPRPRPRPPYEPRP | 0.0264 |
| RRIRGRPPRLPRPRPRPPYMPRP | -0.0678 |
| RRIRGRPPRLPRPRPRPQAKPRP | 1.34 |
| RRIRGRPPRLPRPRPRPQAMPRP | -0.0164 |
| RRIRGRPPRLPRPRPRPQARPRP | 0.3 |
